The text below walks through data of PMC3883301, “FLC-mediated flowering repression is positively regulated by sumoylation” (Journal of Experimental Botany, 2013).

B1: His6-FLC (flowering locus C, full length) (natural protein, Arabidopsis thaliana, UniProt Q9S7Q7 1-196, looked up)
chain: MGRKKLEIKRIENKSSRQVTFSKRRNGLIEKARQLSVLCDASVALLVVSASGKLYSFSSGDNLVKILDRYGKQHADDLKALDHQSKALNYGSHYELLELVDSKLVGSNVKNVSIDALVQLEEHLETALSVTRAKKTELMLKLVENLKEKEKMLKEENQVLASQMENNHHVGAEAEMEMSPAGQISDNLPVTLPLLN
notes: Flowering locus C (FLC), MADS-box transcription factor, Arabidopsis; full-length cDNA in pET28a; The printed name puts His6 before FLC; also called Arabidopsis FLC; source: E. coli BL21/DE3 (pLysS), purified (Ni2+-NTA resin)

In one assay the target is T1, GST–FLC, full length (Arabidopsis thaliana, UniProt Q9S7Q7 1-196).
T1 construct: Flowering locus C (FLC), Arabidopsis, full-length GST–FLC bait; The construct section describes only GST–FLC-Myc (pGEX4T-1)
T1 sequence (looked up): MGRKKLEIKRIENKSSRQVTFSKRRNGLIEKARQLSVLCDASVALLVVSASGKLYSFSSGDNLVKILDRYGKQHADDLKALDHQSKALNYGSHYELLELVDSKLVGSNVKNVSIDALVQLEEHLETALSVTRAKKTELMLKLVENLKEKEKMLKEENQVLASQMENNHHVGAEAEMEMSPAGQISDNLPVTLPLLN
Briefly: pull-down; 2 μg GST–FLC bait and 2 μg His6-FLC or His6-mFLC prey in 1 ml binding buffer (50 mM TRIS-HCl pH 7.5, 100 mM NaCl, 1% Triton X-100, 0.2% glycerol, 0.5 mM β-mercaptoethanol); 25 °C 2 h; glutathione resin; anti-His blot. Conditions: both partners purified.

For assay [1], the target named is B1. Briefly: pull-down; 2 μg GST–AtSIZ1 (full length or deletion mutant) or GST bait and 2 μg His6-FLC prey in 1 ml 50 mM TRIS-HCl pH 7.5, 100 mM NaCl, 1% Triton X-100, 0.2% glycerol, 0.5 mM β-mercaptoethanol; 25 °C 2 h; glutathione resin; anti-His blot. Conditions: both partners purified.

For B1, the binding result with GST–FLC, full length was “binds”.

B2: GST–AtSIZ1 (D3), amino acids 1–100 (domain or fragment, Arabidopsis thaliana, UniProt Q680Q4 1-100, looked up)
chain: MDLEANCKEKLSYFRIKELKDVLTQLGLSKQGKKQELVDRILTLLSDEQAARLLSKKNTVAKEAVAKLVDDTYRKMQVSGASDLASKGQVSSDTSNLKVK
notes: AtSIZ1, Arabidopsis, amino acids 1-100 (N-terminal region containing the SAP domain), in pGEX4T-1; also called N-terminal region containing the SAP domain of AtSIZ1; source: E. coli BL21/DE3 (pLysS), purified (glutathione resin)
On to B2, for which the binding result in assay [1] was “binds”.

B3: His6-mFLC (FLC K154R) (natural protein, Arabidopsis thaliana, UniProt Q9S7Q7 1-196, looked up)
chain: MGRKKLEIKRIENKSSRQVTFSKRRNGLIEKARQLSVLCDASVALLVVSASGKLYSFSSGDNLVKILDRYGKQHADDLKALDHQSKALNYGSHYELLELVDSKLVGSNVKNVSIDALVQLEEHLETALSVTRAKKTELMLKLVENLKEKEKMLREENQVLASQMENNHHVGAEAEMEMSPAGQISDNLPVTLPLLN
notes: Flowering locus C (FLC), Arabidopsis, full length with the sumoylation site mutation K154R; The construct section describes His6-FLC(K154R)-Myc only; also called mutant FLC; source: E. coli BL21, purified (Ni2+-NTA resin)
As for B3, the binding result with GST–FLC, full length is given as “binds”.
